Data on twelve molecules can be found in patent US20100169988A1 (published 2010).

In test [1] the target is T1, APP-TAP-AICD (human, UniProt P05067 18-695). In words: streptavidin purification of APP-TAP-AICD from brain homogenate; LTQ-FT semiquantitative method, transgenic mouse 75 vs control mouse 72.
For test [2], the target named is T1, APP-TAP-AICD. Kind of test: streptavidin purification of APP-TAP-AICD from brain homogenate; iTRAQ 116/114, transgenic mouse 75 vs control mouse 72; MALDI-TOF/TOF.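 Further: relative protein abundance in the transgenic versus control pull-down, limited to proteins with high quality scores and above-average enrichment, without full normalization across the whole measurement.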
From the text: Shown are all proteins that have high quality scores and are enriched above average in the m75 sample. Purified bait protein is given underlined. Other already known interaction partners of AICD or putatively biologically relevant proteins are given in bold. As full normalization over the entire measurement was not possible through the GPS explorer software suite, this conservative estimate had to be taken for determining the enriched vs. the non-enriched proteins. […] Ranking is in order of abundance ratio.

B1: Myosin light chain kinase 2, skeletal/cardiac muscle (MLCK2) (Fragment) (enzyme, mouse, UniProt Q8VCR8 1-613, looked up)
chain: MTTENGAVELGSQSLSTEQTPKAAAGDGPSASEKEPSAPATEKDLSPPNAKKDPGAPDPKNNPDPPSLKKDPAKAPGPEKKGDPVPASASSQGPSGEGDGGGGPAEGSEGPPAALPLPTATAEASIQKLDPTQAPSGNQGSGEAKAGKKAAECREAGRRGSPAFLHSPSCPAIISCSEKTLAVKPLSETTDLVFTGVSVTPDPQDPGPVKAGGTNALAEKKKEEAEKASGQAGQAKVQGDTPQRIGFQAVPSERVEVGQALCLTAREEDCFQILDDCPPPPAPFPHRIVELRTGNVNSEFSMNSKEALGGGKFGAVCTCTERATGLKLAAKVIKKQTPKDKEMVLLEIEVMNQLNHRNLIQLYAAIETSHEIILFMEYIEGGELFERIVDEDYHLTEVDTMVFVRQICDGILFMHKMRVLHLDLKPENILCVNTTGHLVKIIDFGLARRYNPNEKLKVNFGTPEFLSPEVVNYDQISDKTDMWSLGVITYMLLSGLSPFLGDDDTETLNNVLSANWYFDEETFEAVSDEAKDFVSNLLTKDQSARMSAEQCLAHPWLNNLAEKAKRCNRRLKSQILLKKYLMKRRWKKNFIAVSAANRFKKISSSGALMALGV
notes: also called MYLK2_MOUSE
On to B1, for which the “probability that this protein is enriched” value with APP-TAP-AICD [1] was determined as 1.

B2: Fructose-bisphosphate aldolase A (Muscle-type aldolase) (Aldolase 1) (enzyme, mouse, UniProt P05064 2-364, looked up)
chain: PHPYPALTPEQKKELSDIAHRIVAPGKGILAADESTGSIAKRLQSIGTENTEENRRFYRQLLLTADDRVNPCIGGVILFHETLYQKADDGRPFPQVIKSKGGVVGIKVDKGVVPLAGTNGETTTQGLDGLSERCAQYKKDGADFAKWRCVLKIGEHTPSALAIMENANVLARYASICQQNGIVPIVEPEILPDGDHDLKRCQYVTEKVLAAVYKALSDHHVYLEGTLLKPNMVTPGHACTQKFSNEEIAMATVTALRRTVPPAVTGVTFLSGGQSEEEASINLNAINKCPLLKPWALTFSYGRALQASALKAWGGKKENLKAAQEEYIKRALANSLACQGKYTPSGQSGAAASESLFISNHAY
Take B2: the iTRAQ ratio with APP-TAP-AICD [2] stood at 4.61. In addition, in the test with APP-TAP-AICD [1], the “probability that this protein is enriched” value was found to be 1.

B3: 2',3'-cyclic-nucleotide 3'-phosphodiesterase (CNPase) (enzyme, mouse, UniProt P16330 1-417, looked up)
chain: MNTSFTRKSHTFLPKLFFRKMSSSGAKEKPELQFPFLQDEDTVATLHECKTLFILRGLPGSGKSTLARLILEKYHDGTKMVSADAYKIIPGSRADFSEAYKRLDEDLAGYCRRDIRVLVLDDTNHERERLDQLFEMADQYQYQVVLVEPKTAWRLDCAQLKEKNQWQLSADDLKKLKPGLEKDFLPLYFGWFLTKKSSETLRKAGQVFLEELGNHKAFKKELRHFISGDEPKEKLELVSYFGKRPPGVLHCTTKFCDYGKAAGAEEYAQQEVVKRSYGKAFKLSISALFVTPKTAGAQVVLTDQELQLWPSDLDKPSASEGLPPGSRAHVTLGCAADVQPVQTGLDLLDILQQVKGGSQGEAVGELPRGKLYSLGKGRWMLSLTKKMEVKAIFTGYYGKGKPVPIHGSRKGGAMQIC
notes: also called CN37_MOUSE
As to B3, the “probability that this protein is enriched” value in the test with APP-TAP-AICD [1] came to 0.87.

B4: phosphoglycerate mutase 1 (enzyme, mouse, UniProt Q9DBJ1 1-254, looked up)
chain: MAAYKLVLIRHGESAWNLENRFSGWYDADLSPAGHEEAKRGGQALRDAGYEFDICFTSVQKRAIRTLWTVLDAIDQMWLPVVRTWRLNERHYGGLTGLNKAETAAKHGEAQVKIWRRSYDVPPPPMEPDHPFYSNISKDRRYADLTEDQLPSCESLKDTIARALPFWNEEIVPQIKEGKRVLIAAHGNSLRGIVKHLEGLSEEAIMELNLPTGIPIVYELDKNLKPIKPMQFLGDEETVRKAMEAVAAQGKVKK
notes: also called PGAM1_MOUSE
For the molecule B4, the “probability that this protein is enriched” value with APP-TAP-AICD [1] stood at 0.86.

B5: 14-3-3 protein beta/alpha (Protein kinase C inhibitor protein 1) (KCIP-1) (other, mouse, UniProt Q9CQV8 1-246, looked up)
chain: MTMDKSELVQKAKLAEQAERYDDMAAAMKAVTEQGHELSNEERNLLSVAYKNVVGARRSSWRVISSIEQKTERNEKKQQMGKEYREKIEAELQDICNDVLELLDKYLILNATQAESKVFYLKMKGDYFRYLSEVASGENKQTTVSNSQQAYQEAFEISKKEMQPTHPIRLGLALNFSVFYYEILNSPEKACSLAKTAFDEAIAELDTLNEESYKDSTLIMQLLRDNLTLWTSENQGDEGDAGEGEN
notes: also called 14-3-3 β
Take B5: the “probability that this protein is enriched” value with APP-TAP-AICD [1] turned out to be 1.

B6: ATP synthase e chain, mitochondrial (enzyme, mouse, UniProt Q06185 2-71, looked up)
chain: VPPVQVSPLIKFGRYSALIIGMAYGAKRYSYLKPRAEEERRIAAEEKKRLDELKRIERELAEAQDDSILK
notes: also called epsilon chain
As to B6, in the test with APP-TAP-AICD [1], the “probability that this protein is enriched” value stood at 0.88.

B7: Sodium/potassium-transporting ATPase alpha-2 chain precursor (Sodium pump 2) (Na+/K+ ATPase 2) (Alpha(+)) (enzyme)
chain: not shown
notes: also called AT1A2_MOUSE
On to B7, for which, in the test with APP-TAP-AICD [1], the “probability that this protein is enriched” value amounted to 0.88.

B8: Plasma membrane calcium-transporting ATPase 2 (PMCA2) (enzyme, mouse, UniProt Q9R0K7 1-1198, looked up)
chain: MGDMTNSDFYSKNQRNESSHGGEFGCTMEELRSLMELRGTEAVVKIKETYGDTEAICRRLKTSPVEGLPGTAPDLEKRKQIFGQNFIPPKKPKTFLQLVWEALQDVTLIILEIAAIISLGLSFYHPPGESNEGCATAQGGAEDEGEAEAGWIEGAAILLSVICVVLVTAFNDWSKEKQFRGLQSRIEQEQKFTVVRAGQVVQIPVAEIVVGDIAQIKYGDLLPADGLFIQGNDLKIDESSLTGESDQVRKSVDKDPMLLSGTHVMEGSGRMVVTAVGVNSQTGIIFTLLGAGGEEEEKKDKKAKQQDGAAAMEMQPLKSAEGGDADDKKKANMHKKEKSVLQGKLTKLAVQIGKAGLVMSAITVIILVLYFTVDTFVVNKKPWLTECTPVYVQYFVKFFIIGVTVLVVAVPEGLPLAVTISLAYSVKKMMKDNNLVRHLDACETMGNATAICSDKTGTLTTNRMTVVQAYVGDVHYKEIPDPSSINAKTLELLVNAIAINSAYTTKILPPEKEGALPRQVGNKTECGLLGFVLDLRQDYEPVRSQMPEEKLYKVYTFNSVRKSMSTVIKMPDESFRMYSKGASEIVLKKCCKILSGAGEARVFRPRDRDEMVKKVIEPMACDGLRTICVAYRDFPSSPEPDWDNENDILNELTCICVVGIEDPVRPEVPEAIRKCQRAGITVRMVTGDNINTARAIAIKCGIIHPGEDFLCLEGKEFNRRIRNEKGEIEQERIDKIWPKLRVLARSSPTDKHTLVKGIIDSTHTEQRQVVAVTGDGTNDGPALKKADVGFAMGIAGTDVAKEASDIILTDDNFSSIVKAVMWGRNVYDSISKFLQFQLTVNVVAVIVAFTGACITQDSPLKAVQMLWVNLIMDTFASLALATEPPTETLLLRKPYGRNKPLISRTMMKNILGHAVYQLTLIFTLLFVGEKMFQIDSGRNAPLHSPPSEHYTIIFNTFVMMQLFNEINARKIHGERNVFDGIFRNPIFCTIVLGTFAIQIVIVQFGGKPFSCSPLQLDQWMWCIFIGLGELVWGQVIATIPTSRLKFLKEAGRLTQKEEIPEEELNEDVEEIDHAERELRRGQILWFRGLNRIQTQIRVVKAFRSSLYEGLEKPESRTSIHNFMAHPEFRIEDSQPHIPLIDDTDLEEDAALKQNSSPPSSLNKNNSAIDSGINLTTDTSKSATSSSPGSPIHSLETSL
notes: also called AT2B2_MOUSE
Regarding B8, in the test with APP-TAP-AICD [1], the “probability that this protein is enriched” value was 0.86.

B9: Clathrin coat assembly protein AP180 (Clathrin coat-associated protein AP180) (91 kDa synaptosomal-associated protein) (other, mouse, UniProt Q61548 1-901, looked up)
chain: MSGQTLTDRIAAAQYSVTGSAVARAVCKATTHEVMGPKKKHLDYLIQATNETNVNIPQMADTLFERATNSSWVVVFKALVTTHHLMVHGNERFIQYLASRNTLFNLSNFLDKSGSHGYDMSTFIRRYSRYLNEKAFSYRQMAFDFARVKKGADGVMRTMVPEKLLKSMPILQGQIDALLEFDVHPNELTNGVINAAFMLLFKDLIKLFACYNDGVINLLEKFFEMKKGQCKDALEIYKRFLTRMTRVSEFLKVAEQVGIDKGDIPDLTQAPSSLMETLEQHLNTLEGKKPGNNEGSGAPSPLSKSSPATTVTSPNSTPAKTIDTSPPVDIFATASAAAPVSSAKPSSDLLDLQPDFSGAAAGAAAPVVPPSGGATAWGDLLGEDSLAALSSVPCEAPISDPFAPEPSPPTTTTEPASASASTTTAVTAVTTEVDLFGDAFAASPGEAPAASEGATAPATPAPVAAALDACSGNDPFAPSEGSAEAAPELDLFAMKPPETSAPVVTPTASTAPPVPATAPSPAPTAVAATAATTTAAAAATTTATTSAAAATTAAAPPALDIFGDLFDSAPEVAAAPKPDAAPSIDLFGTDAFSSPPRGASPVPESSLTADLLSVDAFAAPSPASTASPAKAESSGVIDLFGDAFGSGASETQPAPQAVSSSSASADLLAGFGGSFMAPSTTPVTPAQNNLLQPSFEAAFGTTPSTSSSSSFDPSVFDGLGDLLMPTMAPSGQPAPVSMVPPSPAMAASKGLGSDLDSSLASLVGNLGISGTTSKKGDLQWNAGEKKLTGGANWQPKVTPATWSAGVPPQGTVPPTSSVPPGAGAPSVGQPGAGFGMPPSGTGMTMMSQQPVMFAQPMMRPPFGAAAVPGTQLSPSPTPATQSPKKPPAKDPLADLNIKDFL
notes: also called AP180_MOUSE; Clathrin coat assembly protein Aβ180
Consider B9, for which the “probability that this protein is enriched” value with APP-TAP-AICD [1] was 0.85.

B10: Phosphatidylethanolamine-binding protein (PEBP) (other, mouse, UniProt P70296 2-187, looked up)
chain: AADISQWAGPLCLQEVDEPPQHALRVDYAGVTVDELGKVLTPTQVMNRPSSISWDGLDPGKLYTLVLTDPDAPSRKDPKFREWHHFLVVNMKGNDISSGTVLSDYVGSGPPSGTGLHRYVWLVYEQEQPLSCDEPILSNKSGDNRGKFKVETFRKKYNLGAPVAGTCYQAEWDDYVPKLYEQLSGK
notes: also called PEBP1_MOUSE
As for B10, in the test with APP-TAP-AICD [2], the iTRAQ ratio turned out to be 4.87. The “probability that this protein is enriched” value with APP-TAP-AICD [1] is 1.

B11: Malate dehydrogenase; mitochondrial precursor (enzyme, mouse, UniProt P08249 25-338, looked up)
chain: AKVAVLGASGGIGQPLSLLLKNSPLVSRLTLYDIAHTPGVAADLSHIETRANVKGYLGPEQLPDCLKGCDVVVIPAGVPRKPGMTRDDLFNTNATIVATLTAACAQHCPEAMVCIIANPVNSTIPITAEVFKKHGVYNPNKIFGVTTLDIVRANTFVAELKGLDPARVNVPVIGGHAGKTIIPLISQCTPKVDFPQDQLATLTGRIQEAGTEVVKAKAGAGSATLSMAYAGARFVFSLVDAMNGKEGVVECSFVQSKETECTYFSTPLLLGKKGLEKNLGIGKITPFEEKMIAEAIPELKASIKKGEDFVKNMK
Consider B11, for which the iTRAQ ratio with APP-TAP-AICD [2] turned out to be 4.71. In the test with APP-TAP-AICD [1], the “probability that this protein is enriched” value amounted to 0.86.

B12: Neuronal membrane glycoprotein M6-b (M6b) (other, mouse, UniProt P35803 1-328, looked up)
chain: MKPAMETAAEENTEQSQERKVNSRAEMEIGRYHWMYPGSKNHQYRPVPNLGDRAGPLSSPGCFECCIKCLGGVPYASLVATILCFSGVALFCGCGHVALAGTVAILEQHFSTNTSDHALLSEVIQLMQYVIYGIASFFFLYGIILLAEGFYTTSAVKELHGEFKTTACGRCISGMFVFLTYVLGVAWLGVFGFSAVPVFMFYNIWSTCEVIKSPQSNGTSGVEQICVDVRQYGIIPWNAFPGKICGSALENICNTNEFYMSYHLFIVACAGAGATVIALIHFLMILSSNWAYLKDASKMQAYQDIKAKEEQELQDIQSRSKEQLNSYT
notes: also called Proteolipid protein PLP/dm-20
As for B12, in the test with APP-TAP-AICD [1], the “probability that this protein is enriched” value is 0.87.
